Assay results published in the RNAGym collection of RNA variant scans (doi:10.1073/pnas.2313332121).

B1: TPR t1 (parent)
chain: GACCAAUCUGCCCUCAGAGCUCGAGAACAUCUUCGGAUGCAGAGGAGGCAGGCUUCGGUGGCGCGAUAGCGCCAACGUCCUCAACCUCCAAUGCAUCCCACCACAUGAUGAUGCCUGAAGAGCCUUGGUUUUUUG

Variants of: B1
Experiment: polymerase ribozyme fitness, log enrichment relative to wild type (log ratio); higher = more active; in vitro selection for triplet polymerase activity
Method in brief: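 In triplicate, a single round of in vitro selection was run on each mutant library, PCR-built and transcribed, covering one subunit of a heterodimeric triplet polymerase ribozyme. Frozen incubation at −7 °C followed annealing with a biotinylated primer, partner subunit and triplets, and extended constructs were then gel-excised, streptavidin-captured and taken through RT-PCR. Fitness is the logarithm of genotype enrichment over wild-type enrichment, from inverse-variance-weighted replicate averages of Illumina-sequenced inputs and outputs. […] only genotypes with ≥10 input reads and ≥1 read per output were kept.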
With GACCAAUCUGCCCUCAGAGCUCGAGAACAUCUUCGGAUGCAGAGGAGGCAGGCUUCGGUGACGCGAUAGCGCCAACCUCCUCAACCUCCAAUGCAACCCACCACAUGAUGAUGCCUGAAGAGCCUUGGUUUUUUG the “polymerase ribozyme fitness (log ratio)” value was -1.55. With GACCAAUCUGCCCUCAGAGCUCGAGAACAUCUUCGGAUGCAGAGGAGGCAGGCUUCGGUGACGCGAUAGCGCCAACGUCGUCAACCUCCAAUGCAUCCCACCACAUGAAGAUUCCUGAAGAGCCUUGGUUUUGUG the “polymerase ribozyme fitness (log ratio)” value was -5.53. With GACCAAUCUGCCCUCAGAGCUCGAGAACAUCUUCGGAUGCAGAGGAGGCAGGCUUCGGUGACGCGAUAGCGCCAACGUCCUCAACCUCCAAUGCAUCCCAACACAUGAUGAUGCCUGAAGAGCCUUGGUUUUUUG the “polymerase ribozyme fitness (log ratio)” value was -0.787. For GACCAAUCUGCCCUCAGAGCUCGAGAACAUCUUCGGAUGCAGAGGAGGCAGGCUUCGGUGACGCGAUAGCGCCAACGUCCUCAACCUCCAAUGCAUCCCAGCACAUGAUGAUGCCUGAAGAGCCUUGGUUUUUUG, the “polymerase ribozyme fitness (log ratio)” value was -1.59. In the case of GACCAAUCUGCCCUCAGAGCUCGAGAACAUCUUCGGAUGCAGAGGAGGCAGGCUUCGGUGACGCGAUAGCGCCAACGUCCUCAACCUCCAAUGCAUCCUACCACAUGAUGAUCCCUGAAGAGCCUUGGUUUUUUG, the “polymerase ribozyme fitness (log ratio)” value is reported as -5.29. With GACCAAUCUGCCCUCAGAGCUCGAGAACAUCUUCGGAUGCAGAGGAGGCAGGCUUCGGUGACGCGAUAGCGCCAACGUGCUCAACCUCCAAUGCAUCCCACCACAUGAUGAUGCCUGAAGAGCCUUGGUUUUUUG the “polymerase ribozyme fitness (log ratio)” value was -0.521. In the case of GACCAAUCUGCCCUCAGAGCUCGAGAACAUCUUCGGAUGCAGAGGAGGCAGGCUUCGGUGACGCGAUAGCGCCAACGUUCUCAACCUCCAAUGCAUCCCACCACAUGAUGAUGCCUGAAGAGCCUUGGUUUUUUG, the “polymerase ribozyme fitness (log ratio)” value is reported as -0.164. In the case of GACCAAUCUGCCCUCAGAGCUCGAGAACAUCUUCGGAUGCAGAGGAGGCAGGCUUCGGUGACGCGAUAGCGCCAACGUCCUCAACCUCCAAUGCAUCUCACCACAUGAUGAUGACUGAAGAGCCUUGGUUUUUUG, the “polymerase ribozyme fitness (log ratio)” value is reported as -2.26. With GACCAAUCUGCCCUCAGAGCUCGAGAACAUCUUCGGAUGCAGAGGAGGCAGGCUUCGGUGACGCGAUAGCGCCAACAUCCUCAACCUCCAAUGCAUCCCACCACAUGAUGAUGCCUGAAGAGCCUUGGUUUUUUG the “polymerase ribozyme fitness (log ratio)” value was -1.19. With GACCAAUCUGCCCUCAGAGCUCGAGAACAUCUUCGGAUGCAGAGGAGGCAGGCUUCGGUGACGCGAUAGCGCCAACGUCCUCAACCUCCAAUGCAUCCCACCACAUGAUGAUGCCUGAAGAGCUUUGGUUUUUUG the “polymerase ribozyme fitness (log ratio)” value was 1.51. For GACCAAUCUGCCCUCAGAGCUCGAGAACAUCUUCGGAUGCAGAGGAGGCAGGCUUCGGUGACGCGAUAGCGCCAACGUCCUCAACCUACAAUGCAUCCCACCACAUGAUGAUGCCUGAACUGCCUUGGUUUUUUG, the “polymerase ribozyme fitness (log ratio)” value was 0.393. In the case of GACCAAUCUGCCCUCAGAGCUCGAGAACAUCUUCGGAUGCAGAGGAGGCAGGCUUCGGUGACGCGAUAGCGCCAACGUCCUCAACCUCUAAUGCAUCCCACCACAUGAUGAUGCCUGAAGAGCCUUGGUUUUUUG, the “polymerase ribozyme fitness (log ratio)” value is reported as -0.458. For GACCAAUCUGCCCUCAGAGCUCGAGAACAUCUUCGGAUGCAGAGGAGGCAGGCUUCGGUGACGCGAUAGCGCCAACGUCCUCAACCUGCAAUGCAUCCCACCACAUGAUAAUGCCUGAAGAGCCUUGGUUUUUUG, the “polymerase ribozyme fitness (log ratio)” value was -1.26. In the case of GACCAAUCUGCCCUCAGAGCUCGAGAACAUCUUCGGAUGCAGAGGAGGCAGGCUUCGGUGACGCGAUAGCGCCAACGUCCUCAACCUCCAAUGCAUGCCACCACAUGAUGAUGCCUGAAGAGCCUUGGUUUUUUG, the “polymerase ribozyme fitness (log ratio)” value is reported as -3.34. For GACCAAUCUGCCCUCAGAGCUCGAGAACAUCUUCGGAUGCAGAGGAGGCAGGCUUCGGUGACGCGAUAGCGCCAACGUCCUCAACCUCCAAUACAUCCCACCACAUGAUGAUGCCUGAAGAGCCUUGGUUUUUUG, the “polymerase ribozyme fitness (log ratio)” value was -0.586. With GACCAAUCUGCCCUCAGAGCUCGAGAACAUCUUCGGAUGCAGAGGAGGCAGGCUUCGGUGACGCGAUAGCGCCAACGUCUUCAACCUCCAAUGCAUCCCACCACAUGAUGAUGCCUGAAGAGCCUUGGUUUUUUG the “polymerase ribozyme fitness (log ratio)” value was -1.03. For GACCAAUCUGCCCUCAGAGCUCGAGAACAUCUUCGGAUGCAGAGGAGGCAGGCUUCGGUGACGCGAUAGCGCCAACGUCCUCAACCUCGAAUACAUCCCACCACAUGAUGAUGCCUGAAGAGCCUUGGUUUUUUG, the “polymerase ribozyme fitness (log ratio)” value was -2.18. In the case of GACCAAUCUGCCCUCAGAGCUCGAGAACAUCUUCGGAUGCAGAGGAGGCAGGCUUCGGUGACGCGAUAGCGCCAACGUCCUCAACCUUCAAUGCAUCCCACCACAUGAUGAUACCUGAAGAGCCUUGUUUUUUUG, the “polymerase ribozyme fitness (log ratio)” value is reported as -2.99. In the case of GACCAAUCUGCCCUCAGAGCUCGAGAACAUCUUCGGAUGCAGAGGAGGCAGGCUUCGGUGACGCGAUAGCGCCAACGUCCUCAACCUCCAAUGCAUCCCACCACAUGAUGAUGCCUGAAGAGACUUGGUUUUUUG, the “polymerase ribozyme fitness (log ratio)” value is reported as 0.936. For GACCAAUCUGCCCUCAGAGCUCGAGAACAUCUUCGGAUGCAGAGGAGGCAGGCUUCGGUGACGCGAUAGCGCCAACGUCCUCAACCUCCAAUGCAUCCCACCACAUGAUGAUGCCUGAAGAGUCUUGGUUUUUUG, the “polymerase ribozyme fitness (log ratio)” value was 1.29. With GACCAAUCUGCCCUCAGAGCUCGAGAACAUCUUCGGAUGCAGAGGAGGCAGGCUUCGGUGACGCGAUAGCGCCAACGUCCUCAACCUCCAAUGCAUGCCACCACAUGAUAAUGCCUGAAGAGCCUUGGUUUUUUG the “polymerase ribozyme fitness (log ratio)” value was -5.81.
